Data set [1] concerns the target BcDltA (D-alanyl carrier protein ligase DltA) (Bacillus cereus, UniProt Q81G39). Nature of the data set: biochemical.
Data set [2] relates to C[C@@H](N)C(=O)O. Kind of data set: purified protein. Particulars: 5 mM ATP, 5 mM CoA, 10 mM MgCl2, 0.1 M KCl, pH 7.2.
Source text: pyrophosphate release, pyrophosphatase-coupled malachite green assay on BcDltA (D-alanyl carrier protein ligase DltA)

BcDltA (D-alanyl carrier protein ligase DltA), sequence (Q81G39 whole entry): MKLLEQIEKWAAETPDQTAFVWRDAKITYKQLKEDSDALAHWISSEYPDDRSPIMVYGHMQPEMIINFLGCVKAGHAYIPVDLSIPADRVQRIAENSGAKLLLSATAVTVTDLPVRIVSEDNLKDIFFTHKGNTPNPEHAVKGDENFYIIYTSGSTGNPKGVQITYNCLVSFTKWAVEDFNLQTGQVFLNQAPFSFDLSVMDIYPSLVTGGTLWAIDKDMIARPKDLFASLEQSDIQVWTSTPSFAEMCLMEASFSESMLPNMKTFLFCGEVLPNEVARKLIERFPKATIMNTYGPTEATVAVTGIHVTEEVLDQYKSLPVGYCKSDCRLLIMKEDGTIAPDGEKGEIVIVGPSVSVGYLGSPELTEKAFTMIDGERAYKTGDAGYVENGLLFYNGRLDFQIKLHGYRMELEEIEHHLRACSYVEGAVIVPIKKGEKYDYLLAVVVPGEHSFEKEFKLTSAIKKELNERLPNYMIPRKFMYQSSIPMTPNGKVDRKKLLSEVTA

For orientation: Kd means the free concentration of one partner at which half of the binding sites on the other are occupied at equilibrium, for simple one-to-one binding. Turning to `Nc1ncnc2c1ncn2[C@@H]1O[C@H](COP(=O)(O)OP(=O)(O)OP(=O)(O)O)[C@@H](O)[C@H]1O` [ATP], the Kd in data set [1] was 430 µM.
As a reminder, the kcat is the number of substrate molecules converted per active site and unit of time at saturation. Usually kcat/Km stands for the turnover number divided by the Michaelis constant. For the compound “BcDltA (D-alanyl carrier protein ligase DltA) (Bacillus cereus ATCC 14579)”, in data set [2], the Km was 0.03 ± 0.01 × 10^-3 M, the kcat came out at 0.182 ± 0.00333 s⁻¹ and the kcat/Km amounted to 6050 ± 1670 M⁻¹ s⁻¹.

The record behind these values is article PMC4176424, “Thiolation-enhanced substrate recognition by D-alanyl carrier protein ligase DltA from Bacillus cereus” (F1000Research, 2014).
